Measurements: publication PMC5293408 (Biochemistry, 2016)
Numbering of substitutions follows the chain as printed. Names and notes keep the numbering of the source. Values joined by “and” are separate entries in the source; they are usually repeats but may differ in a detail not shown here. Identical values can stand only once. Like-named read-outs stand apart in the source and are kept apart here.

T1: hUGDHA136M (human UDP-glucose dehydrogenase A136M) (Homo sapiens, UniProt O60701, A136M)
T1 sequence (O60701 1-494 A136M): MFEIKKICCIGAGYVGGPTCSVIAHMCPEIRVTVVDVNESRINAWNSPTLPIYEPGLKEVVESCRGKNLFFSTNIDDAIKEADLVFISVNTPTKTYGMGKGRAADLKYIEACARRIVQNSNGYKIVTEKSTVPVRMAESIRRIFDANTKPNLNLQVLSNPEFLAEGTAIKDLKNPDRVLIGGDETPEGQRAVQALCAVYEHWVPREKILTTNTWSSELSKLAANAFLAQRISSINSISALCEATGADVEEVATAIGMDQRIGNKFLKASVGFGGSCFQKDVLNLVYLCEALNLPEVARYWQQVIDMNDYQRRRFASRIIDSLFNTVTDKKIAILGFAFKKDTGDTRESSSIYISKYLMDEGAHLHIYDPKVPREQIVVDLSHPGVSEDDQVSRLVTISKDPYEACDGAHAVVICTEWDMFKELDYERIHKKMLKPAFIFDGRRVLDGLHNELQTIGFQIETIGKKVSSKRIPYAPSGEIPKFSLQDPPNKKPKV

B1: Human UDP-glucose dehydrogenase with the A136M substitution (enzyme)
chain: T1 sequence (O60701 1-494 A136M)
B2: Human UDP-glucose dehydrogenase (enzyme, UniProt O60701 1-494, looked up)
chain: T1 sequence (O60701 1-494 A136M) with M136A

Columns and labels:
[1] = biological target: T1, hUGDHA136M (human UDP-glucose dehydrogenase A136M); experiment: steady-state kinetics, global fit of competitive inhibition; assay type: biochemical
[2] = substrate: NC(=O)c1ccc[n+]([C@@H]2O[C@H](COP(=O)([O-])OP(=O)(O)OC[C@H]3O[C@@H](n4cnc5c(N)ncnc54)[C@H](O)[C@@H]3O)[C@@H](O)[C@H]2O)c1; experiment: steady-state NAD+ saturation kinetics; assay type: biochemical, Homo sapiens; conditions: NAD+ binding domain (NB); varied: cofactor
[3] = biological target: the molecule itself; experiment: AUC
[4] = biological target: the molecule itself; experiment: AUC; remark: listed apart in the source

Molecule | Ki [1] | Km [2] | stoichiometry N [3] | stoichiometry N [4]
O=c1ccn([C@@H]2O[C@H](COP(=O)(O)OP(=O)(O)O[C@H]3OC[C@@H](O)[C@H](O)[C@H]3O)[C@@H](O)[C@H]2O)c(=O)[nH]1 [UDP-xylose] | 4.2 µM |  |  | 
B1 |  | 90 µM | 6 and 2 and 4 | 
B2 |  |  | 6 | 2 and 4
